Target: SH2D3A peptide on HLA-A*02:01 (human)
Experiment: T2/peptide TDCC potency screen with TCR2-T-IL12 cells, peptide titration; reference: DCAF4L2 target peptide; full-length, on cells
Conditions: chains Valpha:Vbeta

B1: TCR2 (protein)
chain 1: EDQVTQSPEALRLQEGESSSLNCSYTVSGLRGLFWYRQDPGKGPEFLFTLYSAGEEKEKERLKATLTKKESFLHITAPKPEDSATYLCAVQAWGGGSQGNLIFGKGTKLSVKP
chain 2: DSGVTQTPKHLITATGQRVTLRCSPRSGDLSVYWYQQSLDQGLQFLIQYYNGEERAKGNILERFSAQQFPDLHSELNLSSLELGDSALYFCASSAGDRGYEQYFGPGTRLTVT
EC50 of peptide relative to the DCAF4L2 target peptide: 87 fold
